B1: CPEB3 Ribozyme (parent)
chain: UAACAGGGGGCCACAGCAGAAGCGUUCACGUCGCAGCCCCUGUCAGAUUCUGGUGAAUCUGCGAAUUCUGCUGUAUAUCUC

Variants of: B1
Assay: self-cleavage, relative activity (ratio to wild type); higher = more cleavage; in vitro, sequencing
Method in brief: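 CPEB3 self-cleaving ribozyme mutant libraries were made by rounds of error-prone PCR, barcoded, and transcribed in vitro with T7 RNA polymerase for 5 hours at 37°C. Cleavage occurred during transcription and a 15 min DNase I step before EDTA stop. RNAs were reverse transcribed with template switching and Illumina-sequenced, with DNA sequencing mapping barcodes to variants. Relative activity is the variant's cleaved/total read fraction divided by wild type's (minimum 5 reads), averaged across three batches.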

Variant | self-cleavage
G24C U54C | 0.14
G24C U58C | 0.2
G24C U60A | 0.45
G24C U66C | 0.26
G24C U67A | 0.21
G24C U67C | 0.11
G24C U69A | 0
G24C U69C | 0.17
G24C U72A | 0.19
G24C U72C | 0.15
G24C U72G | 0.2
G24C U76C | 0.2
G24C U80C | 0.36
G24U | 0.3
G24U A28G | 0.17
G24U A35G | 0.9
G24U A35U | 0.19
G24U A45C | 0.22
G24U A45U | 0.18
G24U A47G | 0.31
G24U A64G | 0.18
G24U A64U | 0.3
G24U A75G | 0.08
G24U A77U | 0.15

Variant | self-cleavage
G24U C38U | 0.1
G24U C44A | 0.18
G24U U25A | 0.3
G24U U26C | 0.11
G24U U31C | 0.37
G24U U41A | 0.23
G24U U48C | 0.12
G24U U49A | 0.23
G24U U51A | 0.1
G24U U51C | 0.2
G24U U54C | 0.17
G24U U58C | 0.17
G24U U60A | 0.16
G24U U67A | 0.16
G24U U67C | 0.1
G24U U72A | 0.11
G24U U72C | 0.52
G24U U76A | 0.4
G24U U80A | 0.22
G24U U80C | 0.41
U25A | 0.3
U25A A28C | 0.39
U25A A28G | 0.28
U25A A28U | 0.52

Variant | self-cleavage
U25A A35C | 0.2
U25A A35G | 0.31
U25A A35U | 0.29
U25A A45C | 0.6
U25A A45G | 0.27
U25A A45U | 0.19
U25A A47G | 0.33
U25A A47U | 0.27
U25A A56G | 0.27
U25A A56U | 0.27
U25A A57G | 0.3
U25A A57U | 0.18
U25A A64G | 0.33
U25A A64U | 0.19
U25A A65C | 0.08
U25A A65G | 0.28
U25A A75G | 0.23
U25A A75U | 0.32
U25A A77C | 0.19
U25A A77G | 0.18
U25A A77U | 0.23
U25A C27U | 0.15
U25A C29G | 0.25
U25A C29U | 0.22

Variant | self-cleavage
U25A C32A | 0.16
U25A C32U | 0.38
U25A C34A | 0.4
U25A C34U | 0.56
U25A C37U | 0.34
U25A C38A | 0.18
U25A C38U | 0.23
U25A C40A | 0.22
U25A C44A | 0.17
U25A C50A | 0.41
U25A C59U | 0.09
U25A C62A | 0.16
U25A C62G | 0.39
U25A C62U | 0.19
U25A C68A | 0.19
U25A C79U | 0.27
U25A C81U | 0.57
U25A G30A | 0.13
U25A G30C | 0.26
U25A G33C | 0.19
U25A G42A | 0.2
U25A G42U | 0.28
U25A G46A | 0.15
U25A G52A | 0.22

Variant | self-cleavage
U25A G52C | 0.27
U25A G53A | 0.28
U25A G61A | 0.23
U25A G61U | 0.18
U25A G63A | 0.28
U25A G63U | 0.2
U25A G70C | 0.07
U25A G70U | 0.06
U25A G73A | 0.36
U25A U26A | 0.39
U25A U26C | 0.28
U25A U26G | 0.29
U25A U31A | 0.16
U25A U31C | 0.17
U25A U41A | 0.44
U25A U41C | 0.28
U25A U41G | 0.22
U25A U43A | 0.21
U25A U43C | 0.28
U25A U48A | 0.32
U25A U48C | 0.3
U25A U49A | 0.19
U25A U49C | 0.22
U25A U49G | 0.19

Variant | self-cleavage
U25A U51A | 0.33
U25A U51C | 0.23
U25A U54A | 0.26
U25A U54C | 0.27
U25A U54G | 0.2
U25A U58A | 0.27
U25A U58C | 0.29
U25A U58G | 0.1
U25A U60A | 0.29
U25A U60C | 0.21
U25A U66A | 0.31
U25A U66C | 0.23
U25A U67A | 0.46
U25A U67C | 0.19
U25A U69A | 0.27
U25A U69C | 0.25
U25A U72A | 0.3
U25A U72C | 0.22
U25A U72G | 0.06
U25A U74A | 0.25
U25A U74C | 0.33
U25A U76A | 0.25
U25A U76C | 0.32
U25A U78A | 0.19

Variant | self-cleavage
U25A U78C | 0.13
U25A U78G | 0.37
U25A U80A | 0.45
U25A U80C | 0.33
U25A U80G | 0.22
U25C | 0.29
U25C A28C | 0.15
U25C A28G | 0.28
U25C A28U | 0.25
U25C A35G | 0.31
U25C A35U | 0.24
U25C A45C | 0.18
U25C A45G | 0.26
U25C A45U | 0.28
U25C A47G | 0.27
U25C A47U | 0.23
U25C A56C | 0.25
U25C A56G | 0.25
U25C A56U | 0.24
U25C A57C | 0.1
U25C A57G | 0.28
U25C A57U | 0.31
U25C A64C | 0.45
U25C A64G | 0.3

Variant | self-cleavage
U25C A64U | 0.26
U25C A65C | 0.45
U25C A65G | 0.3
U25C A65U | 0.28
U25C A75C | 0.35
U25C A75G | 0.23
U25C A75U | 0.34
U25C A77C | 0.3
U25C A77G | 0.27
U25C A77U | 0.26
U25C C27A | 0.41
U25C C27U | 0.36
U25C C29A | 0.3
U25C C29G | 0.24
U25C C29U | 0.47
U25C C32A | 0.22
U25C C32U | 0.14
U25C C34G | 0.27
U25C C34U | 0.25
U25C C37A | 0.46
U25C C37U | 0.19
U25C C38A | 0.18
U25C C38G | 0.19
U25C C38U | 0.68

Variant | self-cleavage
U25C C39A | 0.23
U25C C39G | 0.15
U25C C39U | 0.2
U25C C40A | 0.15
U25C C40U | 0.19
U25C C44U | 0.23
U25C C50A | 0.09
U25C C50G | 0.37
U25C C50U | 0.27
U25C C59A | 0.16
U25C C59U | 0.28
U25C C62G | 0.18
U25C C62U | 0.11
U25C C68A | 0.24
U25C C71A | 0.13
U25C C71G | 0.1
U25C C71U | 0.1
U25C C79A | 0.35
U25C C79G | 0.26
U25C C79U | 0.34
U25C C81A | 0.23
U25C C81G | 0.22
U25C C81U | 0.15
U25C G30A | 0.33

Variant | self-cleavage
U25C G30C | 0.26
U25C G30U | 0.16
U25C G33A | 0.25
U25C G33C | 0.16
U25C G33U | 0.15
U25C G36A | 0.17
U25C G36U | 0.16
U25C G42C | 0.33
U25C G42U | 0.5
U25C G46A | 0.28
U25C G46C | 0
U25C G46U | 0.2
U25C G52A | 0.26
U25C G52C | 0.58
U25C G52U | 0.29
U25C G53A | 0.43
U25C G53C | 0.15
U25C G55A | 0.28
U25C G55C | 0.33
U25C G55U | 0.21
U25C G61A | 0.15
U25C G61C | 0.15
U25C G61U | 0.17
U25C G63A | 0.37

Variant | self-cleavage
U25C G63C | 0.26
U25C G63U | 0.3
U25C G70A | 0.3
U25C G70C | 0.11
U25C G73U | 0.43
U25C U26A | 0.28
U25C U26C | 0.27
U25C U26G | 0.31
U25C U31A | 0.25
U25C U31C | 0.23
U25C U31G | 0.23
U25C U41A | 0.3
U25C U41C | 0.28
U25C U41G | 0.27
U25C U43A | 0.34
U25C U43C | 0.3
U25C U43G | 0.35
U25C U48A | 0.31
U25C U48C | 0.26
U25C U48G | 0.39
U25C U49A | 0.3
U25C U49C | 0.21
U25C U51A | 0.27
U25C U51C | 0.26

Variant | self-cleavage
U25C U51G | 0.12
U25C U54A | 0.28
U25C U54C | 0.27
U25C U54G | 0.31
U25C U58A | 0.29
U25C U58C | 0.26
U25C U58G | 0.33
U25C U60A | 0.24
U25C U60C | 0.23
U25C U60G | 0.13
U25C U66A | 0.35
U25C U66C | 0.27
U25C U66G | 0.69
U25C U67A | 0.25
U25C U67C | 0.2
U25C U67G | 0.11
U25C U69A | 0.22
U25C U69C | 0.22
U25C U69G | 0.21
U25C U72A | 0.22
U25C U72C | 0.28
U25C U72G | 0.26
U25C U74A | 0.42
U25C U74C | 0.35

Variant | self-cleavage
U25C U76A | 0.33
U25C U76C | 0.3
U25C U76G | 0.45
U25C U78A | 0.25
U25C U78C | 0.24
U25C U78G | 0.22
U25C U80A | 0.28
U25C U80C | 0.35
U25G | 0.31
U25G A28G | 0.37
U25G A28U | 0.31
U25G A35G | 0.9
U25G A35U | 0.39
U25G A45G | 0.29
U25G A47U | 0.32
U25G A56G | 0.4
U25G A57G | 0.16
U25G A64G | 0.24
U25G A64U | 0.23
U25G A65G | 0.26
U25G A65U | 0.07
U25G A75G | 0.29
U25G A77U | 0.25
U25G C27U | 0.39

Variant | self-cleavage
U25G C32A | 0.26
U25G C34U | 0.15
U25G C37U | 0.09
U25G C39U | 0.3
U25G C50U | 0.14
U25G C59U | 0.21
U25G C71G | 0.16
U25G G52A | 0.15
U25G G70C | 0.33
U25G G73A | 0.51
U25G U26C | 0.33
U25G U31A | 0.23
U25G U31C | 0.19
U25G U41A | 0.19
U25G U41C | 0.4
U25G U41G | 0.43
U25G U43A | 0.58
U25G U43C | 0.34
U25G U48C | 0.36
U25G U49A | 0.26
U25G U49C | 0.45
U25G U51A | 0.3

From the RNAGym collection of RNA variant scans (doi:10.1093/nar/gkz1192)
